# Assay: yeast display, Sf9 membrane polyspecificity reagent, FACS + sequencing; frameworks hold sequencing errors
# How it was run: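 Nanobodies from a synthetic yeast display library (Saccharomyces cerevisiae BJ5465), induced 36–48 hours with galactose, were stained 1 hour at 4 °C with 10% biotinylated, detergent-solubilized Sf9 membrane reagent, enriched on streptavidin microbeads, then FACS-sorted. Anti-HA (expression) and streptavidin (reagent binding) fluorescence set low and high (top ~1%) gates. Polyreactivity labels come from the gate of origin. Genes were colony-PCR amplified, MiSeq 2 × 250 sequenced and filtered by CDR length.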
row,Sequence,polyreactivity (PSR sort gate)
1,QVQRVESGGGLVQAGGILRLSCAASGSTFKVNVIGWYRHAPRTERDLVSAINQSGGGKYYADSVKGRFTISRDNAKNTVYLQMNSLKPEDTAVYYCAAKIFVLRYVLSQEQRRYNYWGQGTQLTVSS,low polyreactivity
2,QVQLVESGGGLVQAGGSLRLSCAASGRTFGINAMGWYRQAPGKERELVAVISFADGGTYYADSVKGRFTISRDNAKNTVYLQMNSLKPEDTAVYYCATDYQSTSVWGGHFVINPYDYWGLGTQVTVSS,low polyreactivity
3,QVQLVESGGGLVQAGGSLRLSCAASGSIIVYNAMGWYRQAPGKERELVAAITGRVGSTYYADSVKGRFTISRDNAKNTVYLQMNSMKPEDTAVYYCAARSYFKWWYAMDYWGQGTQVTVSS,high polyreactivity
4,QVQLVESGGGLVQEGGSLSLSCAASGITLSLYAMGRYRQAPGKERELVAAISRSGGSTYYAYSVKGRFTISRDNAKNTVYLQMNSLKPVDTAFFYCATSWTPNYFVTSDYWGQGTQVTVSS,high polyreactivity
5,QVQLVESGGGLVQAGGSIRLSCAASGRTFVPYVMGWYIQAPGKERELVATINWSGGSTYYADSVKGRFSISRDNAKNTVYLQMNSLKPEDTADYYCDARYYSDWFYYLFRYDYWGQGTQVTVSS,low polyreactivity
6,QVQLQESGDGLVQAGGSLRLSSAASGTIFSDYGMGGYRQAPGKERELLAGISDGCNTNYTDSVKGRFTISRDNAHRVSADELPETGVYRGVLLRGCERWLLFYVYWGQGTQVTVSS,high polyreactivity
7,QVQLVESGGGLVQAGGSLRLSCAASGRTLYDYAMEWYRQAPGKERELVAGITSGDSTYYADSVKGRFTISRDNAKNTVDLQMNSLKPEDTAVYYCAADSDTFYYTGYDYDYWGQGTQGTVSS,low polyreactivity
8,QVQLEESGGGLVQAGGSLRLSCAASGSTFTFNAMGWYRQAPGKERELVAVISSGGSTYYAESVKGRFTISRDNAKNTFYLQMNSLKPEDTAVYYCNKVYGYFGQYYLRYNYWGQGTQVTVSS,low polyreactivity
9,QVQLVESGGGLVQAGGSLRLSCAASGSIMVRYAMGWYRQAPGKERELVAAITSGGSTYADSVKGRFTISRDNAKNTVYLQMNSLKPEDTAVYYCARDYFNREAFDYWGQGTQVTVSS,low polyreactivity
10,QVQLVESGGRIVQAGGSLRLSCAASGRTFPINAMGWYRQAPGKERELVASIRWTDGTTYYADSVKGRFTISRDNAKNTVYLQMNSLKPEDTAVYYCAADAEGSASKYDYWGQGTQVTVSS,low polyreactivity
11,QVQLVESGGGLVQAGGSLRLSCAASGFTFSSNVMGWYRQAPGKERELVAAISTSGDGSTYYADSVKGRFTISRDNAKNTVYLQMNSLIPEDTAVYYCAAEYPDEDGVYEYDSWGQGTQVTVSS,low polyreactivity
12,QVQLVESGGGLVQARGSLRLSCPASGLIFPAYAMGWYRQAPGKERELVATITWRGGSTYYADSVKGRFTISRDNAKNTVYLQMNSLKPEDTAVYYCATRPRYYYFRYDYWGQGTQVTVSS,high polyreactivity
13,QVQLVESGGGLVQAGGSLRLSCDASGRTFRYYAMGWYRQAPGKEREMVAAITRSGGSTYYADSVKGRFTISRDNAKNTVYLQMNSLKAVDTAVYYCAESRFYSYGIDYDYWGQGTQVTVSS,high polyreactivity
14,QVQLVESGGGLVQAGGSLRLSCAASGSTFRYYAMGWYRQAPGKERELVASISSGGSTNYADSVKGRFTISRDNAKNTVYLQMNSLKPGDTAVYYCNADSWTVNRRYYYYRYEYWGQGTQVTVSS,low polyreactivity
15,QVQLVESGGGLVQAGGSLRLSCAASGFTFSIYAMGWYRHAPGKERELVAAINWSGGSTYYADSVKGRFTISRDNAKNTVYLQMNSLKPEDTAVSYCATEATYGGGPGYEYWGQGTQVTVSS,low polyreactivity
16,QVQLVDSGGGLVQAGGSLRLSSAASGRTLVNYAMGCYRQAPGKERELVAAISYSGGSTYYADSVKGRFTISRDNAKNTVYLQMNSLKPEDTAVYYCAAYYYQRYDYWGQGTQVTVSS,high polyreactivity
17,QVQLVESGGGLVQAGGSLRLSCAASGRTFYWNAMGWSRQAPGKERELVASINCGGSTYYADSVKGRFTISRDNAKNTVYLQMNSLKPEGTAVYYCNAESYEFHRAWGDYDYWGQGTQVTVSS,low polyreactivity
18,QVQLVESGGGLVQAGGSLRLSCAASGSIFAKYTMGWYRQAPGKERELVAAITRSGTSTRYADSVKGRFTISRDNAKNTVYLQMNSLKPEDTAVYYCAASLYSWGQGTQVTVSS,high polyreactivity
19,QVQLVESGGGLVQAGGSLRLSCAASGRTFHWYAMGGYRQAPGKERELVAAIRYSAGSTYYADSVKGRFTISRDNAKNTVYLQMNSLKPEDTAVYYCAAEPYPYGPYYLLWLRYDYWGQGTQVTVSS,low polyreactivity
20,QVQLVESGGGLVQAGGSLRISCAASGRIFVSNAAMGWYIQAPGKESELVAAITSRGGRTTYADSVKGRFTSSRDNAKNTVYLQMNSLKPEDTAVYYCAARVRGYDWVRGSPFHHNYWGQGTQVTVSS,high polyreactivity
21,QVQLVESGGGLVQAGGSLRLSCAASGRTFPGNAMGGYRQAPGKERELVAAISSRGGSTYYADSVKGRFTISRDNAKNTVNLQMKSLKPEDTAVYYCNAASNYRVRRTYHGDYWGLGTQVTVSS,high polyreactivity
22,QVQLVESGGGLVQAGGSLRLSCAASGLTLSGYAMGWYRQAPGKERELVAAISSTGGSTYYADSVKGRFTISRDNAKNTVYLQMNSLKPEATAVYYCAKGYSPTRVRLRYPRYDTYNHWGQVTQVTVSS,high polyreactivity

row,Sequence,polyreactivity (PSR sort gate)
1,QVQLVESGGGLVQAGGSLRLSCAASGSIFEYNDMGWYRQAPGKERELVAAITTGGRTSYADSVKGRFTISRDNAKNTVYLQMNSLKPEDTAVYYCAAEPPAEFWTDRLVDYYVGYDYWGQGTQVTVSS,low polyreactivity
2,QVQLVESGGGLVQAGGSLRLSCAASGRTFANNAMGSYRPAPGKAREWVASISITTSTYYADSVKGRFTISRDNAKITVYLQLNSLKPEDTPVYYCAAYYFIHAGPWEFDYWGQGTQVTVSS,low polyreactivity
3,QVQLVESGGGLVQAGGSLRLSCAASGSTFRPYAMGWYRQAPGKERELVAAITFNGDTYADSVKGRFTISRDNAKNTVYLQMNSLKPEDTAVYYCNAESVSSPPYYDYWGQGTQVTVSS,high polyreactivity
4,QVQLVESGGGLVQAGGSLRLSCAASGSTFQPYAMGWYRPAPGKERELVAAIRYSGGITYYADSVKGRFTISRDNAKNSVYLQMNSLKPEDTAVYYCAAYGFYGGDYWGQGTQVTVSS,high polyreactivity
5,QVQLVESGGGLVQAGGSLRLSCAASGSIFGVYAMGWYRQAPGKERELVAAISWSGTSTYYADSVKGRFTISRDNAKNTVYLQMNSLKPEDTAVYYCNGDWVLDGYDYDSWGQGTQVTVSS,low polyreactivity
6,QVQLVESGGGLVQAGGSLRLSCAASGSIFGYYTMGWYRPAPGKERELVAAITSGGSTNYADSVKGRFTISRDNAKNTVYLQMNSLKPEDTAVYYCAKVSYYPWRYDYWGQGTQVTVSS,low polyreactivity
7,QVQLVESGGGLVQAGGSLRLSCAASGNTFWLNAMGWYRQAPGKERELVASISYSGASTYYADSVKGRFTISRDNAKNTVYFQMNSLKPEDTAVYYCNTDGDDFFHVIYDYWGQGTQVTVSS,low polyreactivity
8,QVPLVESGGGVVQAGGSLRLSCAASGSIFNVNAMGWYRPAPGKERELVAAISSGGDTYYADSLKGRFTISRDNAKNTVYLQMNSLKPEDTAVYYCAAEIYTAYYEFDYWGQGTQVTVSS,low polyreactivity
9,QVQLVESGGGLVQAGGSLRLSCAASGFTICTYAMGWYRQAPGKERELVAAIDSGGSTYYADSVMGRFTISRDNAKTTVYLQMNSLKPEDTAVYYCNAGPSVTSGYDYDYWGQGTQVTVSS,low polyreactivity
10,QVQLVESGGGLVQAAGSLRLSCAASGFTFWLYAMGWYRQAPGSEREMVAAIRRGGGTNYADSVKGRFTISRDNAKNTVYLQMNSLKPEDTAVYYCAAAVLSYRHAHAGYYYAKGDYWGQGTQVTVSS,high polyreactivity
11,QVQLVESGGGLVQAGGSLRLSCAASGLIYWYAMGWYRQAPGKERELVAAISSNGGSTYYADSVKGRFTISRDNAKNTVYLQMNSLKPEDTAVYYCAAEDYYIYREPYDYWGQGTQVTVSS,low polyreactivity
12,QVQHVESGGGLVQAGGSLRLSCAASGRTFRGNAMGWDRQAPGKERELVAAIRYRGGSTYYADSVKGRFTISRDNAKNTVYLQMNSLKPEDTAVYYCARRYTVHTQHYDYWGQGTQVTVSS,high polyreactivity
13,QVQLVESGGGLVQAGGSLRFSCAASGRIFTAYTMGWYRQAPGKERELVAAITRAGRTYYADSVKGRFTISRDNAKNTVYLQMNSLKPEDTAVYYCNTAPNYKYGYWGQGTQVTVSS,high polyreactivity
14,QVQLVESVGGLVKAGGSLRLSCAASGRTFYNAMGWYRQAPGKERELVAAISSDGSTYYADSVKGRFTISRDNAKNTVYLQMNSLKPEDTAVYYCARDLGSWYYQVRFGYWGQGTQVTVSS,high polyreactivity
15,QVQLVESGGGLVQEGGSLRLSCAASESNFPRNAMGLYRKEPGKEREIVAAISSAGSTYYADSVKWRFTISRDNAKNTVYLQMNSLKQEDTAVYYCAARLYWPLIVVDLYGYDYWGQGNQVTVSS,low polyreactivity
16,QVQLVESGGGLVQAGGSLRLSCAASGSIWHKAMGWYRQAPGKERELVASSTNYADSVKGRITISRDNAKNTVYLQMNSLKPEDTAVYYCALEQGVNRNHDYWGQGTQVTVSS,low polyreactivity
17,QVQLVESGGGLVQAGGSLRLSCAASGSTFYWYTMGWYRQAPGKERELVATITSSGGRTYYADSVKGRFTISRDNAKNTVYLQMNSLKPEDTAVYYCAAYRRNSRWELDYWGQGTQVTVSS,high polyreactivity
18,QVQLVESGGGLVQAGGSLRLSCAASGSIFYPYAMGWYRQAPGKERELVAAIRWRGGNTYYADSVKGRFTFSRDNAKNTVYLQMNSLKPEDTAVYYCAADGKYLQGFGYYYWGQGTQVTVSS,high polyreactivity
19,QVQLVESGGGLVQAGGSLRLSCAASGSIFGYYTKVWYRQARGKEREFVAAINTSGGSTYADSVKGRCTISRDNAKNTVYLQMNSLKPEDTAVYYCAADGYYEYTWGEYDSWGQGTQVTVSS,low polyreactivity
20,QVQLVESGGGLVQAGGSLRLSCAASGIILTYYAMGWYRPAAGHERELVARISSSGGRTYYADSVKARFTISRDNAKNTLYLQMNSQKPEETAVYYCAAAIVSSGRNDYWGHGTQVTVSS,high polyreactivity
21,QVQLVESVGVLVQAGGSLRLSCAASGITFSSYAMGWYRQAPGKERELVAAITRTGGRTYYADSVKGRFTISRDNAKNTVYLQMNRLKPEDTAVYYCAAYYIAYYYWGQGTQVTVSS,high polyreactivity

# — the nanobody polyreactivity screen of Harvey et al. (2022)
